Assay results taken from doi:10.1101/2025.11.10.687702.

Assays:
Rab7A(QL)-6xHis (human) = Rab7A(QL)-6xHis (human) (UniProt P51149); assay: liposome flotation; purified VPS13C construct with SUVs (84.8% POPC, 10% POPE, 5% DGS-NTA, 0.2% Rhodamine-PE) to which His-tagged Rab7A(QL) or ATG7 was tethered; 1 mM GTP, 2 mM Mg2+, room temperature 20 min; OptiPrep gradient, top fraction on SDS-PAGE
[1] = molecular target: human Rab7A-Q67L with an N-terminal Strep tag (human) (UniProt P51149); assay: pull-down; Strep-Rab7A(Q67L) and FLAG-tagged VPS13C constructs co-expressed in Expi293F; lysate in buffer A with 1 mM GTP and 2 mM MgCl2 on Strep-Tactin XT resin, 2 h at 4 °C, eluted with 50 mM biotin; SDS-PAGE with Coomassie stain and/or anti-FLAG western blot
Chain of human Rab7A-Q67L with an N-terminal Strep tag (human) (P51149 whole entry Q67L): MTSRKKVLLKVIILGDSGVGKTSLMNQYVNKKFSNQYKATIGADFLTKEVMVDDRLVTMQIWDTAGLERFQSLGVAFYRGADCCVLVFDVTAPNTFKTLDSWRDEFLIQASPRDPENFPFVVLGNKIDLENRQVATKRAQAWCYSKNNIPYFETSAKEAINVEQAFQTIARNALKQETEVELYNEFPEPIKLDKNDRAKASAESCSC

Chain of VPS13C lacking the amphipathic helices of the ATG2_C motif, C-terminal 3xFLAG (Q709C8 whole entry): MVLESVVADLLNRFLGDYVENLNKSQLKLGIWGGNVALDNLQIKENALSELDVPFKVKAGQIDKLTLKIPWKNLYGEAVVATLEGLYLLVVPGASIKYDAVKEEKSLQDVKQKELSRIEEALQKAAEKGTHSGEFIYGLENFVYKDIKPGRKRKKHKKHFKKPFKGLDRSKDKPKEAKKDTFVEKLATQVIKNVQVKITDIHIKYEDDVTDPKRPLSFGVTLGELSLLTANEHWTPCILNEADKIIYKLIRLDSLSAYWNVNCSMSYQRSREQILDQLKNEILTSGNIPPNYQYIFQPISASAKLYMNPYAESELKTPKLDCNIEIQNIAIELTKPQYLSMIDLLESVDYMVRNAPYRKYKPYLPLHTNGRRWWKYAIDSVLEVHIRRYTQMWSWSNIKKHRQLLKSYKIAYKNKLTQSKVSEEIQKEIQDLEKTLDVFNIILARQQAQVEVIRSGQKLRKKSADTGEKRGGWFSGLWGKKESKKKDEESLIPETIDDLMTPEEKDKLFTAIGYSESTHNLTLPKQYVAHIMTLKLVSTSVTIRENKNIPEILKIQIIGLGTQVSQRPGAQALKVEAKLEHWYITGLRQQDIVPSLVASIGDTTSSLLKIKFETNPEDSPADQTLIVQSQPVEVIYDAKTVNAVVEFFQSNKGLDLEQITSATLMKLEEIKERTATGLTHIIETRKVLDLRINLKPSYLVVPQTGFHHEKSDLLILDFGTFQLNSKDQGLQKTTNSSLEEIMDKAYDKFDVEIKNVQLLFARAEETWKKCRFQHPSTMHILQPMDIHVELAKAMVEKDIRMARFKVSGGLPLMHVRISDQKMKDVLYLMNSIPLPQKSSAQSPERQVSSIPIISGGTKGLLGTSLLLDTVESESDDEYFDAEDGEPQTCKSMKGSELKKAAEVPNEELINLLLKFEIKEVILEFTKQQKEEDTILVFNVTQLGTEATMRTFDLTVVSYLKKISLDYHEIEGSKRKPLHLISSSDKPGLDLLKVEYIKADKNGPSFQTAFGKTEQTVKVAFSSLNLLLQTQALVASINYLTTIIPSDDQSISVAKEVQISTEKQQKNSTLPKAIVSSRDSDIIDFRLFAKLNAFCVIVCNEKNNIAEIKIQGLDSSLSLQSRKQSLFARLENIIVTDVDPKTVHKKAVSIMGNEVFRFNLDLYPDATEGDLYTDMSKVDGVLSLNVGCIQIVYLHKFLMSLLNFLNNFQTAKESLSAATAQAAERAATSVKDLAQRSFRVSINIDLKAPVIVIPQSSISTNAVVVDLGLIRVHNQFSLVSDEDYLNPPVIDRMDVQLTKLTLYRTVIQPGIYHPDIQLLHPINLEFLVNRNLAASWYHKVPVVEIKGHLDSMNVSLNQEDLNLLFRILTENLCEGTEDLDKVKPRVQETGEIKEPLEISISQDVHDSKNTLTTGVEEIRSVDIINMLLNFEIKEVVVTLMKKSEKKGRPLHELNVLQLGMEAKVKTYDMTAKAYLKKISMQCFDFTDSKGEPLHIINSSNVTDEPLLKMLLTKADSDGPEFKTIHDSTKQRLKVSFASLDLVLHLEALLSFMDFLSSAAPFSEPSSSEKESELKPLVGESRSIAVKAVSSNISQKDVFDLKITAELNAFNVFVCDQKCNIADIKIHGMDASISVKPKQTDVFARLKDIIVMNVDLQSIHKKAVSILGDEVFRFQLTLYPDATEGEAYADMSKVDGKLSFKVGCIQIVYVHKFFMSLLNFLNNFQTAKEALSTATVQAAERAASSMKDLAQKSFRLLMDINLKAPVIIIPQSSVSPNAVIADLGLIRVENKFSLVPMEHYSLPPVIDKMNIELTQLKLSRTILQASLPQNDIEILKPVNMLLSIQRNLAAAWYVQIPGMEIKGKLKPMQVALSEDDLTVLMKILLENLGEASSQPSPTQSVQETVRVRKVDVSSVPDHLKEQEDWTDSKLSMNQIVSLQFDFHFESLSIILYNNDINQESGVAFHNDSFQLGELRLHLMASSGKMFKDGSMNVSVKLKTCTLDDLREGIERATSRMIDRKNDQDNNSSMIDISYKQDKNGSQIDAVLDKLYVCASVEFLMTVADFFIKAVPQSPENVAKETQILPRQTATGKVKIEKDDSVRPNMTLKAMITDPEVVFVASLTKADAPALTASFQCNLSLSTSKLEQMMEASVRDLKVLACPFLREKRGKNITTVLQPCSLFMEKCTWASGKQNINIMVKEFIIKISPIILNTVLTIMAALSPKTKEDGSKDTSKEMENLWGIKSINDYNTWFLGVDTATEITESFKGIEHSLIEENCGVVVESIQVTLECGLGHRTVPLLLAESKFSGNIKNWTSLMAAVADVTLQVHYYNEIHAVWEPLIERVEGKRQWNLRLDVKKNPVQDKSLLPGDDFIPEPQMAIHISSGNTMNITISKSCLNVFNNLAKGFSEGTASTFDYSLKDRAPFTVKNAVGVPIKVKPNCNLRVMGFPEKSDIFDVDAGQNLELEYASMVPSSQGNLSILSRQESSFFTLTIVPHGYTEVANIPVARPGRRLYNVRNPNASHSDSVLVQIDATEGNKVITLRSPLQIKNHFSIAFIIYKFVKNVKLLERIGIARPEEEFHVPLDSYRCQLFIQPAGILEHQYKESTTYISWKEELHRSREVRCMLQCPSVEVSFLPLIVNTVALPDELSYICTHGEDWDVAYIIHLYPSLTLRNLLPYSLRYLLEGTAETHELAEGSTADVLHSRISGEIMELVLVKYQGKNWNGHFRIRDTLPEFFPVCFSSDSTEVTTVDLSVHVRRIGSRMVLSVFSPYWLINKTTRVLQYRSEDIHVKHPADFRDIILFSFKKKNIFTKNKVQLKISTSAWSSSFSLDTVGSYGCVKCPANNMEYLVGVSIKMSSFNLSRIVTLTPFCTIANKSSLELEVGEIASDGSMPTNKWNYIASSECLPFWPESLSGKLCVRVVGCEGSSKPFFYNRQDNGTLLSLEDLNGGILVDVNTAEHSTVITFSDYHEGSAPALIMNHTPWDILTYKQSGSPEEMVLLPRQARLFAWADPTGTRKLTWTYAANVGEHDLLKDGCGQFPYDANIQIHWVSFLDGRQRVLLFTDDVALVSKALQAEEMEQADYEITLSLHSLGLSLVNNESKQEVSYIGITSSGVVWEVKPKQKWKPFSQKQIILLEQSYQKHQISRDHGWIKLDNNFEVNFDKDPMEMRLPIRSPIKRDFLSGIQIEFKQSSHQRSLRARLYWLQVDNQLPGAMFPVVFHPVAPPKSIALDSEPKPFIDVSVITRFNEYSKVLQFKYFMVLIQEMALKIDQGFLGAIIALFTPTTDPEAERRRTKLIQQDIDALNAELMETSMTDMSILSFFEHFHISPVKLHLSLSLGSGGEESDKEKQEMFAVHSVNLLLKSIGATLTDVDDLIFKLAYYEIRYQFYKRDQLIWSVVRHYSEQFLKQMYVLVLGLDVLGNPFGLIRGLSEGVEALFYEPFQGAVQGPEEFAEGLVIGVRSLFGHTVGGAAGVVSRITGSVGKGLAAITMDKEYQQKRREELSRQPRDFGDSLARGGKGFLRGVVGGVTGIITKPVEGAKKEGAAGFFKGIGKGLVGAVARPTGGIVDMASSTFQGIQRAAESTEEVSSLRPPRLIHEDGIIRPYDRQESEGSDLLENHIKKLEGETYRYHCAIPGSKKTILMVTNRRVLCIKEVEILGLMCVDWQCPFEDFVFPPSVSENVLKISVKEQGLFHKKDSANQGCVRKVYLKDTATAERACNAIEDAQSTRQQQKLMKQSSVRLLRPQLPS
Chain of Rab7A(QL)-6xHis (human) (P51149 whole entry Q67L): as the sequence (P51149 whole entry Q67L) above

percent co-floated with SUVs bearing His-tagged Rab7A (Rab7A(QL)-6xHis (human)) | fraction of total overexpressed VPS13C retained by Rab7(Q67L) [1] | Substance
> 80% | – | VPS13C lacking the amphipathic helices of the ATG2_C motif, C-terminal 3xFLAG (from UniProt Q709C8 1-3753) (natural protein)
– | 5% | full-length human VPS13C with a C-terminal 3xFLAG tag, Q709C8 1-3753
